Laboratory results published in paper PMC6899190 (Nature structural & molecular biology, 2019).

B1: A3F_(CTDm) D260R/D261R (domain or fragment)
chain: KEILRNPMEAMDPHIFYFHFKNLRKAYGRNESWLCFTMEVVKHHSPVSWKRGVFRNQVDPETGRHAERCFLSWFCRRILSPNTNYEVTWYTSWSPCPECAGEVAEFLARHSNVNLTIKTARLYYFKDTDAAEGLRSLSQEGASVEIMGYKDFKYCWENFVYNDDEPFKPWDGLDYNFLDLDSKLQEILE
B2: A3F_(CTDm) R293D (domain or fragment)
chain: KEILRNPMEAMDPHIFYFHFKNLRKAYGRNESWLCFTMEVVKHHSPVSWKRGVFRNQVDPETGRHAERCFLSWFCDDILSPNTNYEVTWYTSWSPCPECAGEVAEFLADHSNVNLTIKTARLYYFKDTDAAEGLRSLSQEGASVEIMGYKDFKYCWENFVYNDDEPFKPWDGLDYNFLDLDSKLQEILE
B3: A3F_(CTDm) P265A (domain or fragment)
chain: KEILRNPMEAMDPHIFYFHFKNLRKAYGRNESWLCFTMEVVKHHSPVSWKRGVFRNQVDPETGRHAERCFLSWFCDDILSANTNYEVTWYTSWSPCPECAGEVAEFLARHSNVNLTIKTARLYYFKDTDAAEGLRSLSQEGASVEIMGYKDFKYCWENFVYNDDEPFKPWDGLDYNFLDLDSKLQEILE
B4: A3F_(CTDm) D347R (domain or fragment)
chain: KEILRNPMEAMDPHIFYFHFKNLRKAYGRNESWLCFTMEVVKHHSPVSWKRGVFRNQVDPETGRHAERCFLSWFCDDILSPNTNYEVTWYTSWSPCPECAGEVAEFLARHSNVNLTIKTARLYYFKDTDAAEGLRSLSQEGASVEIMGYKDFKYCWENFVYNRDEPFKPWDGLDYNFLDLDSKLQEILE

Legend:
[1] = biological target: MBP-tagged Vif–CBFβ–EloB–EloC complex (wild type) (HIV-1 (pNL4–3) | human | , UniProt P12504;Q13951-2;Q15370;Q15369); test: pull-down
[2] = biological target: MBP-tagged Vif–CBFβ–EloB–EloC complex with CBFβ E54K (HIV-1 (pNL4–3) | human | , UniProt P12504;Q13951-2;Q15370;Q15369, E54K); test: pull-down
[3] = biological target: truncated Vif–CBFβ subcomplex (Vif176Δ114–157 with CBFβ151) (HIV-1 (pNL4–3) | human, UniProt P12504;Q13951); test: SEC

Row | Binder | binding result [1] | binding result [2] | binding result [3]
1 | B1 | binds | – | –
2 | B2 | – | binds | –
3 | B3 | binds | – | –
4 | B4 | binds | – | binds
